The results in this text go back to patent publication US20260097113A1 (Pfizer, published 2026).

The target of assay [1] is RSV A + RSV B bivalent composition (RSV subtype A; RSV subtype B). Description: AM14 prefusion assay relative to standard; RSV A + RSV B 240 µg/mL each, 2% sucrose + 4% mannitol; post-lyo 2 months at 5°C.
The target is the same in assay [2]. Put plainly: AM14 prefusion assay relative to standard; RSV A + RSV B 240 µg/mL each, 2% sucrose + 4% mannitol; post-lyo T0.

AM14 (trimeric prefusion specific antibody of the AM14 ELISA), sequence (VH): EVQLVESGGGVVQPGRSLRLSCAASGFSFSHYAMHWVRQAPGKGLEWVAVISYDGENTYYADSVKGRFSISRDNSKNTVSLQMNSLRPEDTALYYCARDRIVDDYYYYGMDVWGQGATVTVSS
AM14 (trimeric prefusion specific antibody of the AM14 ELISA), sequence (VL): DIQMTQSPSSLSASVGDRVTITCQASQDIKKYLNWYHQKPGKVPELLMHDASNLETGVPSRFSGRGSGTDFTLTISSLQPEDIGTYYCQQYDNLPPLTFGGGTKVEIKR

In the case of “AM14 (trimeric prefusion specific antibody of the AM14 ELISA)”, the values for the AM14 Prefusion Content (%), relative to standard in assay [1] and in assay [2] were 116% and 81%, respectively.
